Key:
Experiment in all cases: SPR
[1] = target: T1, Human TRAIL-R2 ectodomain (residues 58–184), released from the Fc fusion (human, UniProt O14763 58-184, selenomethionine (only in the labelled complex of the derivative crystals)); settings: both partners purified
T1 construct: also called DR5; TRAIL-R2 receptor; not shown: Fc (human IgG1), C-terminal, cleaved

[2] = target: T2, TRAIL (TNF-related apoptosis inducing ligand) ectodomain (UniProt P50591 39-281); settings: one partner purified
T2 construct: also called TNFSF10; Apo2L

[3] = target: T3, TRAIL (TNF-related apoptosis inducing ligand) ectodomain (UniProt P50591 39-281); settings: one partner purified; remark: listed apart in the source
T3 construct: also called TNFSF10; Apo2L

B1: UL141-Fc fusion protein (Fc fusion)
chain: DIAEKMWAENYETTSPAPVLVAEGEQVTIPCTVMTHSWPMVSIRARFCRSHDGSDELILDAVKGHRLMNGLQYRLPYATWNFSQLHLGQIFSLTFNVSTDTAGMYECVLRNYSHGLIMQRFVILTQLETLSRPDEPCCTPALGRYSLGDQIWSPTPWRLRNHDCGMYRGFQRNYFYIGRADAEDCWKPACPDEEPDRCWTVIQRYRLPGDCYRSQPHPPKFLPVTPAPPADIDTGMS
[1]
  Kd: 21.4 nM
  koff: 0.00564 s⁻¹
  kon: 264000 M⁻¹ s⁻¹

B2: human TRAIL-R2-Fc D148A (Fc fusion)
chain: QQDLAPQQRAAPQQKRSSPSEGLCPPGHHISEDGRDCISCKYGQDYSTHWNDLLFCLRCTRCDSGEVELSPCTTTRNTVCQCEEGTFREEASPEMCRKCRTGCPRGMVKVGDCTPWSDIECVHKESG
notes: source: Sf9 insect cells, culture supernatant; not shown: Fc (human IgG1), C-terminal, kept
[2]
  Kd: 4.48 nM
  koff: 3.58e-05 s⁻¹
  kon: 8000 M⁻¹ s⁻¹

B3: human TRAIL-R2-Fc M152A (Fc fusion)
chain: QQDLAPQQRAAPQQKRSSPSEGLCPPGHHISEDGRDCISCKYGQDYSTHWNDLLFCLRCTRCDSGEVELSPCTTTRNTVCQCEEGTFREEDSPEACRKCRTGCPRGMVKVGDCTPWSDIECVHKESG
notes: as for B2
[2]
  Kd: 202 nM
  koff: 0.000678 s⁻¹
  kon: 3350 M⁻¹ s⁻¹

B4: Human TRAIL-R2-Fc K155A (Fc fusion)
chain: QQDLAPQQRAAPQQKRSSPSEGLCPPGHHISEDGRDCISCKYGQDYSTHWNDLLFCLRCTRCDSGEVELSPCTTTRNTVCQCEEGTFREEDSPEMCRACRTGCPRGMVKVGDCTPWSDIECVHKESG
notes: source: Sf9, culture supernatant used for SPR; not shown: Fc (human IgG1), C-terminal, kept
[3]
  Kd: 40 nM

B5: human TRAIL-R2-Fc P150A (Fc fusion)
chain: QQDLAPQQRAAPQQKRSSPSEGLCPPGHHISEDGRDCISCKYGQDYSTHWNDLLFCLRCTRCDSGEVELSPCTTTRNTVCQCEEGTFREEDSAEMCRKCRTGCPRGMVKVGDCTPWSDIECVHKESG
notes: as for B2
[2]
  Kd: 4.29 nM
  koff: 9.02e-06 s⁻¹
  kon: 2100 M⁻¹ s⁻¹

B6: Human TRAIL-R2-Fc M152A (Fc fusion)
chain: QQDLAPQQRAAPQQKRSSPSEGLCPPGHHISEDGRDCISCKYGQDYSTHWNDLLFCLRCTRCDSGEVELSPCTTTRNTVCQCEEGTFREEDSPEACRKCRTGCPRGMVKVGDCTPWSDIECVHKESG
notes: also called TRAIL-R2 M152A mutant; source: Sf9, culture supernatant used for SPR; not shown: Fc (human IgG1), C-terminal, kept
[3]
  Kd: 202 nM

B7: human TRAIL-R2-Fc K155A (Fc fusion)
chain: QQDLAPQQRAAPQQKRSSPSEGLCPPGHHISEDGRDCISCKYGQDYSTHWNDLLFCLRCTRCDSGEVELSPCTTTRNTVCQCEEGTFREEDSPEMCRACRTGCPRGMVKVGDCTPWSDIECVHKESG
notes: as for B2
[2]
  Kd: 39.7 nM
  koff: 0.000138 s⁻¹
  kon: 3480 M⁻¹ s⁻¹
